Columns and labels:
human CD28-Fc = human CD28-Fc (human, UniProt P10747 19-152); assay: filter binding?
murine CD28-Fc = biological target: T1, murine CD28-Fc (mouse, UniProt P31041 20-150); assay: filter binding
T1 sequence: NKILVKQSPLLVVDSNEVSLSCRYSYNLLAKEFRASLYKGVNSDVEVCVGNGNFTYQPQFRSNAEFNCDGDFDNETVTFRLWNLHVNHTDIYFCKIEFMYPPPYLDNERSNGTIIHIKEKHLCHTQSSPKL

Chain of human CD28-Fc (P10747 19-152): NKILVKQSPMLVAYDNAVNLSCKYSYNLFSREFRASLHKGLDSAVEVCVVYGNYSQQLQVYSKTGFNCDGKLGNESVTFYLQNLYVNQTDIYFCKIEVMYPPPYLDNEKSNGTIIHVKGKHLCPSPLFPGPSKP

B1: CD28Apt7 (monomer) (structured_RNA)
RNA: GGGAGAGAGGAAGAGGGAUGGGGAUUAGACCAUAGGCUCCCAACCCCCAUAACCCAGAGGUCGAUAGUACUGGAUCCCCCC
modifications: 2'-fluoropyrimidine (2'-F C and U)
With B1 the binding result (human CD28-Fc) was “no binding” and the Kd (murine CD28-Fc) was 60 nM.

From paper PMC3696906
